Assay in all cases: ELISA
Experiment [1] has as its target Staphylococcus aureus protein A (SpA), wild type, full-length (Staphylococcus aureus) (UniProt P02976).
The target in experiment [2] is Bd-cys dimer (affinity-purified cysteine-terminated B-domain, largely dimers linked by a disulfide bond), unlabeled (Staphylococcus aureus).
Experiment [3] addresses FL-labeled Bd-cys dimer (disulfide-linked dimer of cysteine-terminated B-domain labelled with FITC) (Staphylococcus aureus).

UniProt P02976, sequence (P02976 37-485): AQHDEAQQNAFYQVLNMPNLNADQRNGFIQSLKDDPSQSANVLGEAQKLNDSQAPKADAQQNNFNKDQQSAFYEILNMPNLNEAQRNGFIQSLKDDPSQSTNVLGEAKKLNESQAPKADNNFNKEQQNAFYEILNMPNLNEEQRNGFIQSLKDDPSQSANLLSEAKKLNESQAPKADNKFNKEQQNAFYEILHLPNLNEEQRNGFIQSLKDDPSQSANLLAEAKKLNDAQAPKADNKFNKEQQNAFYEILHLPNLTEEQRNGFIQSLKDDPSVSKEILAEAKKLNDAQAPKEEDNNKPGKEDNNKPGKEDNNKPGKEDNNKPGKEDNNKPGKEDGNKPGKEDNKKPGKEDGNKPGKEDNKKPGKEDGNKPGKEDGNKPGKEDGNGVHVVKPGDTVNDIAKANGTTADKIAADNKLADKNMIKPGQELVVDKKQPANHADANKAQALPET

Regarding HRP-conjugated rabbit IgG (antibody), the figures for the net absorbance at 405 nm (net absorbance (405 nm)) in experiment [1], in experiment [2] and in experiment [3] were 1.25, 0.98 and 0.21, respectively.

As to “HRP-conjugated guinea pig IgG (antibody)”, the figures for the net absorbance at 405 nm (net absorbance (405 nm)) in experiment [1], in experiment [2] and in experiment [3] were 0.84, 0.85 and 0.16, respectively.

(Values after publication PMC3658131.)
